# According to patent US20250011363A1, “OPTIMIZED SHORTENED PEPTIDE THAT BINDS TO ACETYLCHOLINE RECEPTOR, AND USE THEREOF” (SKINMED CO., LTD., priority 2021, published 2025):
# Target: acetylcholine receptor (Homo sapiens, UniProt P02708)
# Test: SPR binding affinity (RU) of optimized 5mer/6mer/7mer peptides, Examples 6-7
# Conditions: 6mer-1 Top sequence; SPR; peptides tested at 10 μM
# Method in brief: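 Synthetic 5mer and 6mer peptides, built from frequent or infrequent amino-acid combinations, were tested at 10 μM for binding to the human acetylcholine receptor by surface plasmon resonance. Binding is reported in response units (RU).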
# acetylcholine receptor, sequence (P02708 21-457): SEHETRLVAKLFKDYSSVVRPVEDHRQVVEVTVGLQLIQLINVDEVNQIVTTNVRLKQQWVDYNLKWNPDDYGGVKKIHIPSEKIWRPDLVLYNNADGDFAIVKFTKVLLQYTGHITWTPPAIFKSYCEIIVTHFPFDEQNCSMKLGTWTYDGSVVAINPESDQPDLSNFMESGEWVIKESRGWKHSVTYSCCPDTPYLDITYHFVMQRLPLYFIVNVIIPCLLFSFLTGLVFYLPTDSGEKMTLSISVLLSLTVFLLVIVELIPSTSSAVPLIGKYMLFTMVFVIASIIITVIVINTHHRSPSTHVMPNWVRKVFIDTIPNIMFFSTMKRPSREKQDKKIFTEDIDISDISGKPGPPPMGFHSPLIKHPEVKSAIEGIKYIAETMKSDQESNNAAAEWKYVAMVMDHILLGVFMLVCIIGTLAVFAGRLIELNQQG
row,Substance,Binding affinity [Ru]
1,6mer-1-335 (RRSQRR),148
2,6mer-1-380 (KRLQLR),121
3,6mer-1-286 (RKLISK),139
4,6mer-1-244 (RRRVQK),144
5,6mer-1-386 (RRSYQK),127
6,6mer-1-326 (RKWIYK),136
7,6mer-1-268 (KRRQSK),144
8,6mer-1-241 (RRLYYK),148

# Same assay, conditions: 6mer-2 Top sequence; SPR; peptides tested at 10 μM
row,Substance,Binding affinity [Ru]
1,6mer-2-192 (RWFSKK),133
2,6mer-2-196 (KSQRKK),121
3,6mer-2-153 (RVYSRR),124
4,6mer-2-123 (RQFTKR),146
5,6mer-2-86 (KQFRRK),126
6,6mer-2-33 (RQFRKK),142
7,6mer-2-195 (KSRQKR),154

# Same assay, conditions: SPR, Resonance Units; 5mer Bottom sequence (bottom combinations); peptides tested at 10 μM
row,Substance,Binding affinity [Ru]
1,5mer-790 (REAGK),33
2,5mer-992 (RNDKK),15
3,5mer-722 (KNHKK),33
4,5mer-1105 (RPTKR),33
5,5mer-706 (RKMAK),27
6,5mer-1038 (KCCKR),17
7,5mer-699 (KKNER),12
8,5mer-1106 (RYTER),18
9,5mer-1104 (RETHK),12
10,5mer-919 (KNNIK),32
11,5mer-1041 (RDWFK),27
12,5mer-952 (KTMHK),12

# Same assay, conditions: SPR, Resonance Units; peptides tested at 10 μM; 6mer-1 Bottom sequence
row,Substance,Binding affinity [Ru]
1,6mer-1-1031 (RKDTHK),38
2,6mer-1-1074 (KRTCGR),24
3,6mer-1-1053 (RKYTPK),27
4,6mer-1-1192 (RKDDDR),36
5,6mer-1-1186 (KKNNAK),37
6,6mer-1-1183 (RKIHNK),35
7,6mer-1-1163 (RKCAFK),21
8,6mer-1-1023 (KRIMHK),39
9,6mer-1-1119 (KRIWVR),31
10,6mer-1-1135 (KKHTER),26
11,6mer-1-1037 (RRKNNR),36
12,6mer-1-1105 (RRCTAR),40
13,6mer-1-1020 (KKMEAK),38
14,6mer-1-1160 (RRDWAK),29
15,6mer-1-1180 (KRPPPK),34

# Same assay, conditions: SPR, Resonance Units; peptides tested at 10 μM; 6mer-1 Bottom sequence (Table 11)
row,Substance,Binding affinity [Ru]
1,6mer-1-762 (KKTKAR),13
2,6mer-1-690 (KREAER),21
3,6mer-1-745 (KKTMEK),11
4,6mer-1-643 (KRYSMR),31
5,6mer-1-673 (RRAMPK),16
6,6mer-1-642 (KKYNGK),24
7,6mer-1-735 (RKDKER),19

# Same assay, conditions: SPR, Resonance Units; peptides tested at 10 μM; 6mer-2 Bottom sequence
row,Substance,Binding affinity [Ru]
1,6mer-2-851 (KFWWRR),19
2,6mer-2-659 (KIPNKR),22
3,6mer-2-757 (RIPNKR),19
4,6mer-2-868 (RTPNRR),30
5,6mer-2-651 (KNADRR),21
6,6mer-2-922 (KDNVRR),41
7,6mer-2-608 (RCNHKK),32
8,6mer-2-726 (KHHKKK),25
9,6mer-2-796 (RMMARR),32
10,6mer-2-855 (REMIKR),19
11,6mer-2-858 (KEEHRR),30
12,6mer-2-896 (RTCARR),30
13,6mer-2-799 (KCSAKK),13
14,6mer-2-676 (KCTAKK),14
15,6mer-2-964 (KCEDRK),41
16,6mer-2-631 (KYCMKR),16
17,6mer-2-972 (KAMFRR),38

# Same assay, conditions: SPR, Resonance Units; peptides tested at 10 μM; 6mer-2 Top sequence
row,Substance,Binding affinity [Ru]
1,6mer-2-536 (RWQRKK),125
2,6mer-2-530 (RSYSKR),139
3,6mer-2-516 (RQQQKK),146
4,6mer-2-598 (KVFRRR),146
5,6mer-2-539 (KWYTKK),127
6,6mer-2-518 (KLVTKK),151

# Same assay, conditions: SPR, Resonance Units; peptides tested at 10 μM; 6mer-2 Top sequence (Table 12)
row,Substance,Binding affinity [Ru]
1,6mer-2-330 (KQLRKK),139
2,6mer-2-398 (RQQRRR),141
3,6mer-2-329 (RVYTKR),142
4,6mer-2-238 (RRRRRK),142
